Source: US20170173151A1 (Genmab, published 2017)

T1: HisCD74v1 (recombinant extracellular domain of human CD74 variant 1, N-terminal hexameric His tag) (human, UniProt P04233 73-296)
T1 construct: also called recombinant CD74v1; CD74v1 extracellular domain
T1 sequence: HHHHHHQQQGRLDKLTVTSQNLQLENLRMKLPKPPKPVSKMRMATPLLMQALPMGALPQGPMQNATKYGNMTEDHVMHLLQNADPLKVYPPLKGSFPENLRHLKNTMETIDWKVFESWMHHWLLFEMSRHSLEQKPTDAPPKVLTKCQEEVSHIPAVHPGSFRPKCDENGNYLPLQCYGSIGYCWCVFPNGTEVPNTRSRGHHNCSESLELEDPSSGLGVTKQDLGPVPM

T2: HisCD74v2 (recombinant extracellular domain of human CD74 variant 2, N-terminal hexameric His tag) (human, UniProt P04233 73-296)
T2 construct: also called recombinant CD74v2; CD74v2 extracellular domain
T2 sequence: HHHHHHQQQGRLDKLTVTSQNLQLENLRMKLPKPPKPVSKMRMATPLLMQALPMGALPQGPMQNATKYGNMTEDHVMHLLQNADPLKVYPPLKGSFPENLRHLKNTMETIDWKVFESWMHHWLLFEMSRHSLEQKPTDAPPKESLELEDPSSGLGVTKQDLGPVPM


Experiments:
[1] = target: human CD74, naturally expressed on cells (Raji, Daudi, M4A4, NCI-H747 cells; human tonsil tissue) (human) (UniProt P04233); test: cell-based or functional assay
[2] = target: T1, HisCD74v1 (recombinant extracellular …); test: ELISA, coated recombinant CD74v1 extracellular domain
Procedure: (§1) ELISA plates (Greiner BioOne) were coated 0/N at 4° C. with 2 μg/mL, 100 μL per well, recombinant CD74v1 or CD74v2 in PBS (B. Braun Melsungen AG). Sequences and production of the isoforms were described supra. ELISA wells were washed three times with PBS containing 0.05% Tween-20 (PBST), emptied, and blocked with 1% (w/v) BSA fraction V (Roche) in PBS at RT for 1 h while shaking (300 rpm), and emptied. Subsequently, 100 μL anti-CD74 HuMab antibodies were added in serial dilutions in 0.2% (w/v) BSA fraction V in PBST (assay buffer) and incubated while shaking at RT for 90 min. ELISA plates were washed three times with PBST, emptied, and bound HuMab antibodies were detected using HRP-conjugated goat-anti human IgG (100 μL; 1:5,000; Peroxidase Affinipure Goat anti-human IgG, F(ab′)2 Fragment Specific [min X Bov,Hrs,Ms Sr Prot]; Jackson Immunoresearch) in assay buffer and incubated while shaking at RT for 90 min. Plates were washed three times with PBST, emptied, and incubated with 100 μL ABTS solution (50 ml ABTS buffer [Roche] and one ABTS tablet [50 mg; Roche]). After incubation in the dark at RT for 30 min, the reaction was stopped by addition of 100 μL per well oxalic acid (2% [w/v]). Plates were measured at OD 405 nm in an ELISA reader (Biotek Instruments, EL808 Absorbance Microplate Reader).
(§2) Isotype control Ab IgG1-b12 was used as a negative control. Binding curves were analyzed using non-linear regression (sigmoidal dose-response with variable slope) using GraphPad Prism 5 software (GraphPad Software, San Diego, Calif., USA).

[3] = target: T2, HisCD74v2 (recombinant extracellular …); test: ELISA, coated recombinant CD74v2 extracellular domain
Procedure: as §1, §2

[4] = target: human CD74, naturally expressed on cells (Raji, Daudi, M4A4, NCI-H747 cells; human tonsil tissue) (human) (UniProt P04233); test: FACS on Daudi cells at 0° C., Alexa-488-labeled antibody displaced by excess unlabeled antibody
[5] = target: human CD74, naturally expressed on cells (Raji, Daudi, M4A4, NCI-H747 cells; human tonsil tissue) (human) (UniProt P04233); test: FACS on Daudi cells; mean of three experiments
[6] = target: human CD74, naturally expressed on cells (Raji, Daudi, M4A4, NCI-H747 cells; human tonsil tissue) (human) (UniProt P04233); test: FACS on Daudi cells, 10 µg/mL; mean of three experiments
[7] = target: T1, HisCD74v1 (recombinant extracellular …); test: ELISA, coated recombinant CD74v1 extracellular domain (CD74ECDHis); mean of four experiments
Procedure: ELISA plates (Greiner BioOne) were coated with 2 μg/mL, 100 μL per well, recombinant CD74ECDHis in PBS (B. Braun Melsungen AG) at 4° C., 0/N. ELISA plates were emptied and blocked with 200 μL/well PBS containing 0.05% Tween-20 (PBST) while shaking (300 rpm), at RT for 1 hour, washed three times with 300 μL PBST and emptied. Subsequently, 100 μL anti-CD74 ADCs or unconjugated CD74-specific HuMab antibodies were added in serial dilutions in PBST and incubated while shaking at RT for 2 hours. ELISA plates were washed with PBST and emptied. Bound anti-CD74 ADCs and unconjugated HuMab antibodies were detected by addition of HRP-conjugated mouse-anti human IgG1 (100 μL; 0.015 μg/mL; Sanquin; # M1328) in PBST and incubation while shaking, at RT for 2 hours. Plates were washed with PBST, emptied and incubated with 100 μL ABTS solution (50 ml ABTS buffer [Roche] and one ABTS tablet [50 mg; Roche]). After incubation in the dark while shaking, at RT for 30 min, the reaction was stopped by incubation with 100 μL per well oxalic acid (2% [w/v]; Riedel de Haen) in the dark while shaking, for 10 min. Plates were measured at OD 405 nm in an ELISA reader (Biotek Instruments, EL808 Absorbance Microplate Reader).
IgG1-b12, an antibody binding to a non-related antigen, was used as a negative control (both unconjugated as well as in ADC format). Binding curves were analyzed by non-linear regression (sigmoidal dose-response with variable slope) using GraphPad Prism 5 software (GraphPad Software, San Diego, Calif., USA).

Molecule | % viability (minimal) of Raji cells, anti-kappa-ETA' assay [1] | EC50 [2] | EC50 [3] | koff [4] | time until half of the bound labeled antibody was replaced [4] | % kill of Daudi cells at 10 µg/mL [1] | % kill of M4A4 cells at 10 µg/mL [1] | % kill of NCI-H747 cells at 10 µg/mL [1] | % kill of Raji cells at 10 µg/mL [1] | IC50 of killing of Daudi cells [1] | IC50 of killing of M4A4 cells [1] | IC50 of killing of NCI-H747 cells [1] | IC50 of killing of Raji cells [1] | EC50 [5] | Maximal binding (MFI at 10 µg/mL) [6] | EC50 [7]
IgG1-b12 (antibody) | 85.9% | – | – | – | – | – | – | – | – | – | – | – | – | – | – | –
HuMab-CD74-008 (antibody, V domains shown, Human IgG,kappa antibody (HuMab) produced transiently in HEK-293F cells; also called antibody 008) VH: QVQLVESGGGVVQPGRSLRLSCAASGFTFSSYAMHWVRQAPGKGLEWVAVISYDGSNKYYADSVKGRFTISRDNSKNTLYLQMNSLRAEDTAVYYCARGREITSQNIVILLDYWGQGTLVTVSS VL: DIQMTQSPSSLSASVGDRVTITCRASQGISSWLAWYQQKPEKAPKSLIYAASSLQSGVPSRFSGSGSGTDFTLTISSLQPEDFATYYCQQYNSYPLTFGGGTKVEIK | – | 1.39 µg/mL | 0.759 µg/mL | 0.00333 s⁻¹ | 4 min | – | – | – | – | – | – | – | – | – | – | –
HuMab-CD74-011-vcMMAE (antibody, IgG1, V domains shown, drug-linker vcMMAE alkylated to the cysteines of the reduced antibody (DAR 3.8-3.9), Antibody-drug conjugate of HuMab-CD74-011 (IgG1,kappa); also called vcMMAE-conjugated HuMab-CD74-011) VH: QVQLVESGGGVVQPGRSLRLSCAASGFTFSSYGMHWVRQAPDKGLEWVAVIWYDGSNKYYADSVKGRFTISRDNSKNTLYLQMNSLRAEDTAVYYCARGGTLVRGAMYGTDVWGQGTTVTVSS VL: DIQMTQSPSSLSASVGDRVTITCRASQGISSWLAWYQQKPEKAPKSLIYAASSLQSGVPSRFSGSGSGTDFTLTISSLQPEDFATYYCQQYNSYPLTFGGGTKVEIK | – | – | – | – | – | 86% | 100% | 40% | 89% | 0.02 µg/mL | 0.32 µg/mL | 7.91 µg/mL | 0.04 µg/mL | 0.05 µg/mL | 3790 MFI | 0.03 µg/mL
HuMab-CD74-011-mcMMAF (antibody, IgG1, V domains shown, drug-linker mcMMAF alkylated to the cysteines of the reduced antibody (DAR 3.9 by HIC), Antibody-drug conjugate of HuMab-CD74-011 (IgG1,kappa)) VH: QVQLVESGGGVVQPGRSLRLSCAASGFTFSSYGMHWVRQAPDKGLEWVAVIWYDGSNKYYADSVKGRFTISRDNSKNTLYLQMNSLRAEDTAVYYCARGGTLVRGAMYGTDVWGQGTTVTVSS VL: DIQMTQSPSSLSASVGDRVTITCRASQGISSWLAWYQQKPEKAPKSLIYAASSLQSGVPSRFSGSGSGTDFTLTISSLQPEDFATYYCQQYNSYPLTFGGGTKVEIK | – | – | – | – | – | 92% | 96% | 17% | 92% | 0.01 µg/mL | 0.1 µg/mL | – | 0.01 µg/mL | 0.05 µg/mL | 5330 MFI | 0.02 µg/mL
HuMab-CD74-006-mcMMAF (antibody, IgG1, V domains shown, drug-linker mcMMAF alkylated to the cysteines of the reduced antibody (DAR 3.7-4.1), Antibody-drug conjugate of HuMab-CD74-006 (IgG1,kappa)) VH: QVQLVESGGGVVQPGRSLRLSCAASGFTFSSYAMHWVRQAPGKGLEWVAVISYDGSIKYYADSVKGRFTISRDNSKNTLYLQMNSLRVEDTAVFYCARGREITSQNIVILLDYWGQGTLVTVTS VL: DIQMTQSPSSLSASVGDRVTITCRASQGISSWLAWYQQKPEKAPKSLIYAASSLQSGVPSRFSGSGSGTDFTLTISSLQPEDFATYYCQQYNSYPLTFGGGTKVEIK | – | – | – | – | – | 93% | 97% | 21% | 93% | 0.01 µg/mL | 0.12 µg/mL | – | 0.01 µg/mL | 0.03 µg/mL | 4050 MFI | 0.02 µg/mL
HuMab-CD74-005-mcMMAF (antibody, IgG1, V domains shown, drug-linker mcMMAF alkylated to the cysteines of the reduced antibody (DAR 3.9-4.0), Antibody-drug conjugate of HuMab-CD74-005 (IgG1,kappa); also called mcMMAF-conjugate of HuMab-CD74-005) VH: QVQLVESGGGVVQPGRSLRLSCAASGFTFSSYAMHWVRQAPGKGLEWVAVISYDGSNKYYADSVKGRFTISRDNSKNTLYLQMNSLRAEDTAVYYCASGRYYGSGSYSSYFDYWGQGTLVTVSS VL: DIQMTQSPSSLSASVGDRVTITCRASQGISSWLAWFQQKPEKAPKSLIYAASSLQSGVPSRFSGSGSGTDFTLTISSLQPEDFATYYCQQYNSYPLTFGGGTKVEIK | – | – | – | – | – | 90% | 97% | 5% | 92% | 0.03 µg/mL | 0.38 µg/mL | – | 0.05 µg/mL | 1.05 µg/mL | 2530 MFI | 0.04 µg/mL
HuMab-CD74-006-vcMMAE (antibody, IgG1, V domains shown, drug-linker vcMMAE alkylated to the cysteines of the reduced antibody (DAR 4.0), Antibody-drug conjugate of HuMab-CD74-006 (IgG1,kappa); also called vcMMAE-conjugated HuMab-CD74-006) VH: QVQLVESGGGVVQPGRSLRLSCAASGFTFSSYAMHWVRQAPGKGLEWVAVISYDGSIKYYADSVKGRFTISRDNSKNTLYLQMNSLRVEDTAVFYCARGREITSQNIVILLDYWGQGTLVTVTS VL: DIQMTQSPSSLSASVGDRVTITCRASQGISSWLAWYQQKPEKAPKSLIYAASSLQSGVPSRFSGSGSGTDFTLTISSLQPEDFATYYCQQYNSYPLTFGGGTKVEIK | – | – | – | – | – | 85% | 100% | 49% | 90% | 0.03 µg/mL | 0.28 µg/mL | 6.12 µg/mL | 0.05 µg/mL | 0.03 µg/mL | 3280 MFI | 0.03 µg/mL
HuMab-CD74-005 (antibody, human IgG1, V domains shown, Human IgG1,kappa; produced transiently in HEK-293F cells; also called antibody 005) VH: QVQLVESGGGVVQPGRSLRLSCAASGFTFSSYAMHWVRQAPGKGLEWVAVISYDGSNKYYADSVKGRFTISRDNSKNTLYLQMNSLRAEDTAVYYCASGRYYGSGSYSSYFDYWGQGTLVTVSS VL: DIQMTQSPSSLSASVGDRVTITCRASQGISSWLAWFQQKPEKAPKSLIYAASSLQSGVPSRFSGSGSGTDFTLTISSLQPEDFATYYCQQYNSYPLTFGGGTKVEIK | – | – | – | – | – | – | – | – | – | – | – | – | – | 1.27 µg/mL | 2780 MFI | 0.03 µg/mL
HuMab-CD74-005-vcMMAE (antibody, IgG1, V domains shown, drug-linker vcMMAE alkylated to the cysteines of the reduced antibody (DAR 3.9-4.0), Antibody-drug conjugate of HuMab-CD74-005 (IgG1,kappa); also called vcMMAE-conjugate of HuMab-CD74-005) VH: QVQLVESGGGVVQPGRSLRLSCAASGFTFSSYAMHWVRQAPGKGLEWVAVISYDGSNKYYADSVKGRFTISRDNSKNTLYLQMNSLRAEDTAVYYCASGRYYGSGSYSSYFDYWGQGTLVTVSS VL: DIQMTQSPSSLSASVGDRVTITCRASQGISSWLAWFQQKPEKAPKSLIYAASSLQSGVPSRFSGSGSGTDFTLTISSLQPEDFATYYCQQYNSYPLTFGGGTKVEIK | – | – | – | – | – | 85% | 100% | 41% | 88% | 0.08 µg/mL | 0.56 µg/mL | 7.48 µg/mL | 0.11 µg/mL | 0.26 µg/mL | 2860 MFI | 0.04 µg/mL
